Laboratory results from paper doi:10.1101/2025.05.08.652848 (bioRxiv, 2025).
*: point of attachment. Biotin = O=C1N[C@H]2[C@H](CS[C@H]2CCCCC(=O)*)N1

Experiments:
[1] = biological target: His-PPARG LBD (human PPARG ligand-binding domain, residues 231 to 505), wild type (human) (UniProt P37231); assay: AlphaScreen or HTRF
[2] = biological target: T1, RXRA^WT:PPARG LBD heterodimer (human, UniProt P37231;P19793); assay: AlphaScreen or HTRF
T1 sequence 1: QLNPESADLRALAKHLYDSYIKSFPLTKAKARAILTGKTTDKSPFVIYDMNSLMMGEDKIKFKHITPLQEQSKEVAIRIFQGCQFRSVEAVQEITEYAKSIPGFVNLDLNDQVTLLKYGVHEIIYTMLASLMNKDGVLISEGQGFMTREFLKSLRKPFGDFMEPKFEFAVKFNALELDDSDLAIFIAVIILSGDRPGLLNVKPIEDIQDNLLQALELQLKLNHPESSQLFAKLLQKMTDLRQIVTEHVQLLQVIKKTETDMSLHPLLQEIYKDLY
T1 sequence 2: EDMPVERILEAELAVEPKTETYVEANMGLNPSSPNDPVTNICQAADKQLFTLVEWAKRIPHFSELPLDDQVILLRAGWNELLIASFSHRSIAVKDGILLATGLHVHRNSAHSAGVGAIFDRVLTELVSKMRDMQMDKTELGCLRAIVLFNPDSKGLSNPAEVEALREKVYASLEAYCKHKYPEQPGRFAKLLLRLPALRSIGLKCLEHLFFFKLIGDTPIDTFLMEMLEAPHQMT

[3] = biological target: N-terminal Avi-tagged PPARG LBD, FTX-6746-modified (human); assay: SPR
[4] = biological target: N-terminal Avi-tagged PPARG LBD, unmodified (DMSO) (human); assay: SPR

biotinylated MED1 LxxLL peptide
Kd [1]: > 2500 nM

B1: biotinylated NCOR1 ID2 peptide (peptide)
peptide: Biotin-GHSFADPASNLGLEDIIRKALMG-NH2
SMILES: CC[C@H](C)[C@H](NC(=O)[C@H](CC(=O)O)NC(=O)[C@H](CCC(=O)O)NC(=O)[C@H](CC(C)C)NC(=O)CNC(=O)[C@H](CC(C)C)NC(=O)[C@H](CC(N)=O)NC(=O)[C@H](CO)NC(=O)[C@H](C)NC(=O)[C@@H]1CCCN1C(=O)[C@H](CC(=O)O)NC(=O)[C@H](C)NC(=O)[C@H](Cc1ccccc1)NC(=O)[C@H](CO)NC(=O)[C@H](Cc1c[nH]cn1)NC(=O)CNC(=O)CCCC[C@@H]1SC[C@@H]2NC(=O)N[C@@H]21)C(=O)N[C@H](C(=O)N[C@@H](CCCNC(=N)N)C(=O)N[C@@H](CCCCN)C(=O)N[C@@H](C)C(=O)N[C@@H](CC(C)C)C(=O)N[C@@H](CCSC)C(=O)NCC(N)=O)[C@@H](C)CC
binding result [2]: binds

B2: biotinylated MED1 LxxLL peptide (peptide)
peptide: Biotin-VSSMAGNTKNHPMLMNLLKDNPAQ-NH2
SMILES: CSCC[C@H](NC(=O)[C@H](CO)NC(=O)[C@H](CO)NC(=O)[C@@H](NC(=O)CCCC[C@@H]1SC[C@@H]2NC(=O)N[C@@H]21)C(C)C)C(=O)N[C@@H](C)C(=O)NCC(=O)N[C@@H](CC(N)=O)C(=O)N[C@H](C(=O)N[C@@H](CCCCN)C(=O)N[C@@H](CC(N)=O)C(=O)N[C@@H](Cc1c[nH]cn1)C(=O)N1CCC[C@H]1C(=O)N[C@@H](CCSC)C(=O)N[C@@H](CC(C)C)C(=O)N[C@@H](CCSC)C(=O)N[C@@H](CC(N)=O)C(=O)N[C@@H](CC(C)C)C(=O)N[C@@H](CC(C)C)C(=O)N[C@@H](CCCCN)C(=O)N[C@@H](CC(=O)O)C(=O)N[C@@H](CC(N)=O)C(=O)N1CCC[C@H]1C(=O)N[C@@H](C)C(=O)N[C@@H](CCC(N)=O)C(N)=O)[C@@H](C)O
fraction of PPARG capable of binding CoA [3]: 34% | fraction of PPARG capable of binding CoA [4]: 82% | Kd [2]: 270 nM | binding result [2]: binds
